From article PMC10857128

Experiments:
[1] = molecular target: peppermint root-type ferredoxin NADP+ reductase (R-FNR) (Mentha × piperita (peppermint))
[2] = molecular target: peppermint leaf-type ferredoxin NADP+ reductase (L-FNR) (Mentha × piperita (peppermint))
[3] = molecular target: peppermint root-type ferredoxin NADP+ reductase (R-FNR) (Mentha × piperita (peppermint)); remark: listed apart in the source

Km^Fd, FNR–Fd-dependent cytochrome c reduction (NADPH-dependent cytochrome c reductase assay, Fd varied 0.3-20 µM, 30 °C, 50 mM Tris pH 7.5) [1] [µM]	kcat, FNR–Fd-dependent cytochrome c reduction (NADPH-dependent cytochrome c reductase assay, Fd varied 0.3-20 µM, 30 °C, 50 mM Tris pH 7.5) [1] [s^−1]	kcat/Km^Fd, FNR–Fd-dependent cytochrome c reduction (NADPH-dependent cytochrome c reductase assay, Fd varied 0.3-20 µM, 30 °C, 50 mM Tris pH 7.5) [1] [µM^−1s^−1]	Km^Fd, FNR–Fd-dependent cytochrome c reduction (NADPH-dependent cytochrome c reductase assay, Fd varied 0.3-20 µM, 30 °C, 50 mM Tris pH 7.5) [2] [µM]	kcat, FNR–Fd-dependent cytochrome c reduction (NADPH-dependent cytochrome c reductase assay, Fd varied 0.3-20 µM, 30 °C, 50 mM Tris pH 7.5) [2] [s^−1]	kcat/Km^Fd, FNR–Fd-dependent cytochrome c reduction (NADPH-dependent cytochrome c reductase assay, Fd varied 0.3-20 µM, 30 °C, 50 mM Tris pH 7.5) [2] [µM^−1s^−1]	Km value for Fd III as told in the text, NADPH-dependent cytochrome c reductase assay (differs from the cell of Table 2) [3] [µM]	Substance
3.6	281	78.3	2.3	125	54.2		peppermint leaf-type ferredoxin (Fd I) (natural protein)
1.9	428	222	2.8	304	109		peppermint root-type ferredoxin (Fd II) (natural protein)
2.3	428	189	2.9	286	98.1	2.1	peppermint root-type ferredoxin (Fd III) (natural protein)
